Molecular target: WT capsid protein (RRV CP) (Ross River virus, UniProt P08491 1-270)
Assay: EMSA (native agarose gel shift, co-migration of protein and DNA); 3 uM CP, 3 uM DNA, 150 mM NaCl; CLP assembly
Settings: protein: recombinant; tags: 6xHis (N-terminal)

Sequence of WT capsid protein (RRV CP) (P08491 1-270): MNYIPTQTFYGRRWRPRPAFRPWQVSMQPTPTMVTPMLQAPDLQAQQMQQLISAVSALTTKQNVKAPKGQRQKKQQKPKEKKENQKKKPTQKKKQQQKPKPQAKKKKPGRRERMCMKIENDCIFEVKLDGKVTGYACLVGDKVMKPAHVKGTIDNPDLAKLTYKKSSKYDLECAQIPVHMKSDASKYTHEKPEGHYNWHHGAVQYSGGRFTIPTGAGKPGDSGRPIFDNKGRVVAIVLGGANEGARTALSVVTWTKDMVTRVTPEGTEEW

Binder: GTTGACGTCACAGATGAGATATAAAGCATAAGGGACATGTTCAAACGG (ssDNA) [48-mer linear ssDNA oligomer (DNA cargo)]
- binding result: binds
